Laboratory results as given in the supplement of paper PMC9170038.

Test system: MS2 coat protein
Experiment: apparent KD of MS2 coat protein; designed switch direction (-1 OFF switch, 1 ON switch): -1; higher = weaker reporter binding
Conditions: Eterna round: R98
Protocol: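 RNA-MaP: designed FMN/MS2 RNA switches (84 nt design region) are transcribed on-chip within common flanks and titrated with SNAP-549-labelled MS2 coat protein (about 1-3000 nM) in 100 mM Tris pH 7.5, 80 mM KCl, 4 mM MgCl2, without or with 200 uM FMN. Median apparent KD per design; activation ratio = KD,OFF / KD,ON.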

## UAUAUAAUUAAGAGCUGGACCAAAACAUGAGGAUCACCCAUGUAGGAUAUCAGCACGAUAAGUGCUGAGAAGGACUACCAGCUC [Denovo 83]
Input ligand: FMN 200 uM
  apparent KD of MS2 coat protein: 0.0224 µM
Input ligand: none
  apparent KD of MS2 coat protein: 0.0185 µM

## AUGCUUCACACAGGAUAUACAUGAGGAUCACCCAUGUGUGGGCGGUAGCUGACACGAGCUACCGGGUAGAAGGGUGUGAAGCAU [xclu_NG2_cac21]
Input ligand: FMN 200 uM
  apparent KD of MS2 coat protein: 0.127 µM
Input ligand: none
  apparent KD of MS2 coat protein: 0.0326 µM

## UCACAGUGUCGUUAUCCGUAGCGAACAUGAGGAUCACCCAUGUAGGAUAUGUUAUUAAACUAAUAACAGAAGGACGUUAGUCGG [Ex NG3 #21]
Input ligand: FMN 200 uM
  apparent KD of MS2 coat protein: 0.0943 µM
Input ligand: none
  apparent KD of MS2 coat protein: 0.036 µM

## UCAUACAUGAGGAUCUCCCAUGACAUGAGGAUCACCCAUGUGCAGGAUAUACGUGAUAUAAUAUAGUAGAAGGGCAGACUAUAU [LRO008_Exclusion NG 3]
Input ligand: FMN 200 uM
  apparent KD of MS2 coat protein: 0.192 µM
Input ligand: none
  apparent KD of MS2 coat protein: 0.157 µM

## AGCUGUGGCCGAGGAUAUCUAUCUUCAAUAACCGAAAUAUAAUCGGACAUGAGGAUCACCCAUGUAGAGAAGGCGGUCUCAGCA [Eli xng2 2.033]
Input ligand: FMN 200 uM
  apparent KD of MS2 coat protein: 0.1 µM
Input ligand: none
  apparent KD of MS2 coat protein: 0.0377 µM

## AACAGCGUAGAUAAUAAUGAUUACAUGAGGAUCACCCAUGUAUAGGAUAUGCAGUGGAAUACACUGCAGAAGGAUACAUCGCUG [Exclusion NG 3/18-B1]
Input ligand: FMN 200 uM
  apparent KD of MS2 coat protein: 0.033 µM
Input ligand: none
  apparent KD of MS2 coat protein: 0.0175 µM

## UGUUGUUACGCAGGAUAUUGCCAACAGGCAGUAGGAUAUCCGAAAGGAGAAGGACCGCCAACAGGCGAGAAGGGCGGGUUAACA [pwkr exNG2 2xF7 2FMN.10 scored 83]
Input ligand: FMN 200 uM
  apparent KD of MS2 coat protein: 0.035 µM
Input ligand: none
  apparent KD of MS2 coat protein: 0.0579 µM

## UUCUGUGCCCAAAGUUUAAGCACAUGAGGAUCACCCAUGUGAAAGGAUAUGUGGCGUGUAACGUUAUAGAAGGUUCACAAUAAA [Edorcetila]
Input ligand: FMN 200 uM
  apparent KD of MS2 coat protein: 0.0749 µM
Input ligand: none
  apparent KD of MS2 coat protein: 0.0331 µM

## CCAUACAUGAGGAUCACCCAUGACAUGAGGAUCACCCAUGUGCAGGAUAUACGUGAUAUAAUAAAGUAGAAGGGCAGACCAAAA [LRO002_Exclusion NG 3]
Input ligand: FMN 200 uM
  apparent KD of MS2 coat protein: 0.0874 µM
Input ligand: none
  apparent KD of MS2 coat protein: 0.0742 µM
